± gives the uncertainty stated by the source.

The data set can be described thus: amyloid nucleation score (Sup35N fusion, yeast selection) (log enrichment); library NNK3; higher = more nucleation; inactive = no reads after selection. The procedure, abridged: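 Using DiMSum, nucleation scores were taken as the log enrichment of output over input reads, centred on the mode score of non-aggregating sequences. The input and output reads came from Illumina sequencing of plasmid inserts, with sequences under 100 input reads excluded. The yeast were psi-negative, expressed Sup35N fused to peptides of 20 random codons, were induced with 100 μM copper sulfate for 24 hours, and were grown 7 days at 30°C on medium lacking adenine and uracil.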
For the substance IAGKIEIIVVRCYSLVGPCT, the amyloid nucleation score was found to be 0.305 ± 0.19.
To IAPYGRGWKDYLIDSEHVRT belongs “inactive”; to IARINGMLASSGVASTM, “inactive”; to IASAYLSVLRYPFRIAKGLI, “inactive”.
Next, IATLEDFMFPLFWYCIYLTN: “inactive”; IAVCTRAMASNRLGFQYRNG: “inactive”; IAVQLEILAY: “inactive”.
For IAYIT, the amyloid nucleation score result was “inactive”.
Turning to ICAGLWAD, the amyloid nucleation score result was “inactive”.
To ICCKYGDAKRLVCWSQKSRK belongs “inactive”.
To ICDFCQQCSVNERKTLNYSA belongs “inactive”.
To ICDKRWVC belongs “inactive”.
Regarding ICISKRYWHDIAFCIGYSNE, the amyloid nucleation score is 1.29 ± 0.12.
To ICLILARINPSIRDLLG belongs 0.298 ± 0.74; to ICNFHSSRPLNIS, “inactive”; to ICPIMNCVFFHRTDQSLSFN, 2.29 ± 0.05.
To ICTLCNVSRLLWSPRDKNAF belongs 2.93 ± 0.063; to ICWKRCHG, “inactive”; to ICYIPY, “inactive”.
To ICYTLVTN belongs “inactive”.
Turning to IDQDFMTVIRQS, the amyloid nucleation score entry was “inactive”.
To IDRHAPSEESVPFWSYWNNG belongs “inactive”.
As for IDSCLQNSP, the amyloid nucleation score result was “inactive”.
As to IDSLSAIGKSWTQGESRSDR, the amyloid nucleation score result was “inactive”.
Next, IDVSCMQNNILRRIGFHV: “inactive”; IEAVCNSWRIYGM: “inactive”; IEHSQYPAQAKPRLGSCLVL: “inactive”.
Next, IENRFVSFLYL: 1.88 ± 0.075.
Turning to IERLDNSIVNVMWILSGCKA, the amyloid nucleation score result was “inactive”.
IEVLKNLRMVTGLVTL: the amyloid nucleation score result is “inactive”.
Next, IEWACVKQMYSHRALLRERR: “inactive”.
In turn, IFCMFYGSMQAQTIKCNVTH registered an amyloid nucleation score of 1.19 ± 0.093.
Next, IFDLWLRLYSLANYNGSFVT: “inactive”; IFEVYDVIT: “inactive”.
Next, IFHLKIAYFPNYGRITLYYL: 1.65 ± 0.091.
Take IFIIIGRRFIILKSLVRLHF: the amyloid nucleation score result is “inactive”.
Next, IFINRKE: -0.431 ± 0.76; IFKKLSFL: “inactive”; IFNKVSLYNEMLVWVLTWSW: “inactive”.
Regarding IFNMSQYNKLECTLTLY, the amyloid nucleation score entry was “inactive”.
To IFSHSSPYNTPRK belongs “inactive”.
For the substance IFVKDFLII, the amyloid nucleation score result is “inactive”.
To IFVVSNFISSSMNYRSYCYL belongs “inactive”; to IGCCFSVLKNLLFSFDVKQF, “inactive”; to IGFCKDLVTCRTDYYAQLDR, “inactive”.
Next, IGFIIGDVFAA: “inactive”; IGGDSRHI: “inactive”; IGGEYGFLSCYSIGVTTFYV: “inactive”.
To IGIDMMMESKLYSCCNLDMY belongs 1.38 ± 0.078; to IGIEFLNLKHLPSYLLSVRF, “inactive”; to IGKRSVRVIDPVFYKPFANM, “inactive”.
With IGLSLE, the amyloid nucleation score result was “inactive”.
Next, IGMVHCIAEDARRLLLYIWV: “inactive”; IGRNSSKIFLFFCSCMRMFS: 2.95 ± 0.077; IGVTPDHRSMLGRNLCLC: “inactive”.
To IGYKLNFCASILDFSYCKIY belongs 1.07 ± 0.19; to IHIGTPFRGSHTFASVRRK, “inactive”; to IHKCYT, “inactive”.
Take IHRYGTRRYETLRGQHAPFP: the amyloid nucleation score is -0.719 ± 1.4.
To IHSPKLLAGAM belongs “inactive”.
Turning to IICGSCPRR, the amyloid nucleation score entry is “inactive”.
To IICLSGGDFRRYELDHSN belongs “inactive”.
Next, IIFQTVR: “inactive”.
With IIGKRTSMVAITLFDINGSS, the amyloid nucleation score entry was “inactive”.
Next, IIGTLSRMLDIGIIFVTT: -0.154 ± 0.88; IIHGHHWFGYNSRLCC: “inactive”; IIIVILLQNWTSVRAVKPIV: “inactive”.
To IIIVKCT belongs “inactive”.
Turning to IIRVRQTLSVRFIYIF, the amyloid nucleation score result was “inactive”.
Next, IITPELYGKLRLHH: “inactive”; IITTHSFQTDWHISEYQDIC: “inactive”; IIWAVRKGTPSSRRVTWAGK: “inactive”.
Turning to IIYKTVHVYVYCSIVLERDL, the amyloid nucleation score entry was “inactive”.
To IKEFLCLDLCQGGGLLSLMV belongs “inactive”.
Next, IKFVIIRITHSREKFSVPLS: “inactive”.
To IKPSMQIILWFGLERYSRAW belongs -0.308 ± 0.6; to IKQRDN, “inactive”; to IKRCK, 1.39 ± 0.076.
Consider IKTRAKLLYFQLVVLTNFLP, for which the amyloid nucleation score result is “inactive”.
To IKVEATRSAVASLRLHI belongs “inactive”; to IKWFLSNGIYYGILNFIDTR, “inactive”; to IKYFAIVSVCGFVA, 1.23 ± 0.13.
To ILAHPCSYRFGSWGRLINRN belongs “inactive”; to ILCGESTR, “inactive”.
Next, ILDAMDTLLRYSGCDRLSWK: “inactive”; ILDMSERFQILNNFR: “inactive”; ILDWG: 0.886 ± 0.15.
On to ILFEFTTPNLSYIFCFFTIH, for which the amyloid nucleation score result was “inactive”.
Next, ILGKRC: “inactive”; ILHFRETLTRINNLEA: “inactive”.
On to ILHKGNS, for which the amyloid nucleation score entry was “inactive”.
To ILKVLFKF belongs 1.13 ± 0.1; to ILLKNFGYEHAAKLNTMKMI, “inactive”; to ILLRPPGWSRQWSVRWGNYP, “inactive”.
ILLSSHSSECNNALIRRF gave an amyloid nucleation score of 1.46 ± 0.074.
Next, ILNRLCRDLYVAFTSSAACR: “inactive”; ILPDLRTFPWSPVVIVHSR: “inactive”.
Next, ILPLMEFGEPKFESSVYSS: “inactive”.
Next, ILRFFIT: “inactive”.
Regarding ILSILMCLQETNTDYNSMNR, the amyloid nucleation score entry was “inactive”.
Take ILSTIVMFLVPSYHLFWLWA: the amyloid nucleation score result was “inactive”.
Next, ILSVSLVVHRKRTTWISNYH: “inactive”.
As for ILTGNGYDSTRKAYCQFWCF, the amyloid nucleation score entry was “inactive”.
Next, ILTHTEVCIPSVRTLSGCKG: “inactive”; ILVIYCRVMKCFKCTRMRLC: “inactive”; IMANFVRMYLEYMMRAAVSL: “inactive”.
Next, IMCANSEVVKCYCNRTKLEL: 1.08 ± 0.14; IMLLLYSESYLTPRTVVNSR: “inactive”; IMPYC: “inactive”.
To IMSFVS belongs 0.031 ± 0.43.
On to IMSSTGIFNLLRAESMCSLF, for which the amyloid nucleation score entry was “inactive”.
To IMTVSLGGRNSDSDNLSCLD belongs “inactive”; to INFLCTDAFTMKFTGAYGKH, 2.4 ± 0.054; to INIWSMYYMILLLFFIIYRL, 0.55 ± 0.24.
Next, INPFLHMVTSLIVEFRVLNC: “inactive”; INPMGITDSVCSTAASG: “inactive”.
On to INRDYSVIVSGSYHHSSLTE, for which the amyloid nucleation score result is “inactive”.
To INSWIPWWLERKWSWHLASI belongs “inactive”; to INWAKHDWGFNYFSCSICWV, 1.39 ± 0.079; to INYLFASRSKQEQLLDWRFS, “inactive”.
Next, INYSWFDLSMALTK: “inactive”; IPEYYKIRWRYGACRSCIVI: “inactive”; IPGYLLDHTAHK: “inactive”.
In the case of IPHAARLCLMWIILWLI, the amyloid nucleation score result was “inactive”.
Next, IPIFWCYI: “inactive”; IPLLQCNIERYISLFVLVVG: “inactive”; IQDFSCFQRSEAVTIQGRS: “inactive”.
Regarding IQIVSWQSAL, the amyloid nucleation score entry is “inactive”.
Next, IQLWRTADGVYKVSGVNK: “inactive”; IQYIMTNLGPDYNRFEYM: “inactive”.
Next, IRALRKRDEDGSLLTGTLFC: -0.385 ± 1.1; IRFQSYRLASSSLVCDCVFC: 0.627 ± 0.31.

These data come from the supplement of paper PMC12042874.
